The text below walks through data of paper PMC2189805.

The target in the assay is SETα (human (endogenous in HeLa)) (UniProt Q01105). As to the kind of experiment: co-IP.
Sequence of UniProt Q01105 (Q01105 2-290): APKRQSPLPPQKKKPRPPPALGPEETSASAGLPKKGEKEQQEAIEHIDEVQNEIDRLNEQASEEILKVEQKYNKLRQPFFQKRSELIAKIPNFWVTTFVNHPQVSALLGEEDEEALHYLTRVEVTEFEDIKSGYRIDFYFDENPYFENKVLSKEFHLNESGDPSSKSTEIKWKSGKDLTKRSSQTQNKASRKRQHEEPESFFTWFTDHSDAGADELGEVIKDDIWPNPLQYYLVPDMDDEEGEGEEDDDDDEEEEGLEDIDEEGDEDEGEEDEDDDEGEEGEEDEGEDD

Take “HuR (endogenous) (from UniProt Q15717 1-326) (natural protein)”: the percent of total cellular HuR bound was determined as 5%.
